# Assay results as given in article PMC7350259.
# Experiments:
# [1] = target: human rhinovirus strain RV89 (purified virus) (human rhinovirus 89 (RV-A, major group)); assay: ELISA; fluid phase competition: RV89 (25 µg/mL) or RV2 (2 µg/mL in the methods, 5 µg/mL in the results) pre-incubated with soluble receptor (50 µg/mL) overnight at 4 °C, then added to plate-bound receptor
# [2] = target: human rhinovirus strain RV2 (purified virus) (human rhinovirus 2 (RV-A, minor group)); assay: as above
Substance,"percent inhibition of RV89 binding to plate-bound ICAM-1 (50 µg/mL ICAM-1, 25 µg/mL RV89) [1] [%]",percent inhibition of RV2 binding to plate-bound LDLR (50 µg/mL LDLR) [2] [%]
recombinant human ICAM-1/CD54 (intercellular adhesion molecule 1) (from UniProt P05362 28-480) (receptor),> 95,–
recombinant human low density lipoprotein receptor (LDLR) (from UniProt P01130 22-788),–,> 60
